According to the supplement of paper PMC10065799, “High-throughput profiling of sequence recognition by tyrosine kinases and SH2 domains using bacterial peptide display” (eLife, 2023):

test system: c-Abl (mouse); assay: phosphorylation enrichment, bacterial display (enrichment ratio); higher = better substrate or ligand; peptides without Tyr show the background
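Note: 11-residue human phosphosite peptides and single-mutation variants displayed on the E. coli surface, counted by deep sequencing, each peptide's frequency after selection divided by its frequency in the unselected input library; frequency after pTyr selection over input frequency; kinase dosed for 20-30% of maximal phosphorylation in three min.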

Sequence	phosphorylation enrichment
DGMADCSDPSY [CDC5L_Y459_Y459C]	0.755
AKLDEYIAIAK [RCOR3_Y46]	0.621
YAADYYKLLGN [ROR2_Y646]	0.769
PRDGEYFTLQI [TP53_Y327_L323R]	1.75
IGERTYGQVFK [CDK13_Y716_G714R_YF]	0.474
RGYRQYAYDGK [HLA-A_Y140_D140Y]	0.532
IIAVHYVLEES [RYR2_Y4559]	0.676
KDYETYQPFQN [CTNND2_Y1157]	0.846
SLHPGYNFRFA [P2RX7_Y291_Y288H_YF]	0.57
SARVRYLMAEK [LDHB_Y173_F171V]	0.472
KLIETYFSKNF [PLP1_Y50_YF]	0.668
TQFWRYFAGNL [SLC25A5_Y112_L111R]	1.55
QNTVDYFDLFG [PTPN11_Y62_G60V_YF]	0.988
ALDRPYTSKHS [NANS_Y71_E68D]	0.637
PRPACYPSTVS [CACNA1C_Y1832_G1831C]	0.437
NIQKKYFRAIL [CHD7_Y1217_YF]	0.43
YGEYRYRSVIK [CFTR_Y517_D513G]	0.745
KGFCGYSFDDI [TMEM230_Y110_R108C_YF]	1.07
ATKNDYWAMLA [WWOX_Y287_P282A]	0.881
HEDPMYDIIRD [RP9_Y142]	1.27
MHFSNYVSKGS [PDGFRA_Y849_D846Y_YF]	0.406
QRASDYYSQQM [GBP6_Y333_A331S]	0.486
DWRQEYVLNEP [TGM1_Y267_S272P]	0.669
ADFFDYGHGLS [KHDRBS3_Y304_YF]	0.76
LADKPYTFEFF [FXN_Y118_D122Y_YF]	1.19
VIESSYTSADG [DHCR7_Y382_C380S]	0.618
TFGVVYKARNK [CDK2_Y19_YF]	0.565
CRVEPYGENFN [APOA4_Y310_R305C]	1.1
PLDEEYFTLQI [TP53_Y327_G325E]	1.13

target: FGFR1 (UniProt P11362); assay: as above
Sequence (P11362 whole entry, looked up): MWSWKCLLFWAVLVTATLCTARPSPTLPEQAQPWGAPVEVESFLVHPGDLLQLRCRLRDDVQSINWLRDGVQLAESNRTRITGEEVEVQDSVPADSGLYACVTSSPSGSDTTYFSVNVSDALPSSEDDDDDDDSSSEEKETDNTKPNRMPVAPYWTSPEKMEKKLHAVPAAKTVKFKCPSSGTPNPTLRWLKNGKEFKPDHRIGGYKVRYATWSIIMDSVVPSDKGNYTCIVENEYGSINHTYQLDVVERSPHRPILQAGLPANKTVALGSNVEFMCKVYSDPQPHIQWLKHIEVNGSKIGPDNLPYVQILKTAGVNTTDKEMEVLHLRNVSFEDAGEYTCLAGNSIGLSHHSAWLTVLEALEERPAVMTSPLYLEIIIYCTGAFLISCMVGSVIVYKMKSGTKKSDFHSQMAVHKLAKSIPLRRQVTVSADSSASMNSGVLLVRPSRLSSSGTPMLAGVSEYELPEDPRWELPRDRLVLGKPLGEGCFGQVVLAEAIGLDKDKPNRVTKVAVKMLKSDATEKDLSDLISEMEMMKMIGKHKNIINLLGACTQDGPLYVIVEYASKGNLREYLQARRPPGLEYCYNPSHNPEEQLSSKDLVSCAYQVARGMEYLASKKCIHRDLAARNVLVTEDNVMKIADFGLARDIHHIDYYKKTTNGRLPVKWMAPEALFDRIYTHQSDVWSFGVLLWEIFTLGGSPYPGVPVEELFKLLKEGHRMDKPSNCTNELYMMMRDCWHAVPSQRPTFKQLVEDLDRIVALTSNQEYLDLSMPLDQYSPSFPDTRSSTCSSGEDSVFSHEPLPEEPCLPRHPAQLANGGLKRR

Sequence	phosphorylation enrichment
DGMADCSDPSY [CDC5L_Y459_Y459C]	0.465
AKLDEYIAIAK [RCOR3_Y46]	0.535
YAADYYKLLGN [ROR2_Y646]	12.5
PRDGEYFTLQI [TP53_Y327_L323R]	11.7
IGERTYGQVFK [CDK13_Y716_G714R_YF]	0.368
RGYRQYAYDGK [HLA-A_Y140_D140Y]	0.426
IIAVHYVLEES [RYR2_Y4559]	0.557
KDYETYQPFQN [CTNND2_Y1157]	0.686
SLHPGYNFRFA [P2RX7_Y291_Y288H_YF]	0.364
SARVRYLMAEK [LDHB_Y173_F171V]	0.482
KLIETYFSKNF [PLP1_Y50_YF]	0.449
TQFWRYFAGNL [SLC25A5_Y112_L111R]	0.494
QNTVDYFDLFG [PTPN11_Y62_G60V_YF]	16.2
ALDRPYTSKHS [NANS_Y71_E68D]	0.379
PRPACYPSTVS [CACNA1C_Y1832_G1831C]	0.49
NIQKKYFRAIL [CHD7_Y1217_YF]	0.436
YGEYRYRSVIK [CFTR_Y517_D513G]	0.454
KGFCGYSFDDI [TMEM230_Y110_R108C_YF]	0.595
ATKNDYWAMLA [WWOX_Y287_P282A]	6.01
HEDPMYDIIRD [RP9_Y142]	0.718
MHFSNYVSKGS [PDGFRA_Y849_D846Y_YF]	0.394
QRASDYYSQQM [GBP6_Y333_A331S]	1.36
DWRQEYVLNEP [TGM1_Y267_S272P]	1.7
ADFFDYGHGLS [KHDRBS3_Y304_YF]	0.459
LADKPYTFEFF [FXN_Y118_D122Y_YF]	0.649
VIESSYTSADG [DHCR7_Y382_C380S]	0.531
TFGVVYKARNK [CDK2_Y19_YF]	0.587
CRVEPYGENFN [APOA4_Y310_R305C]	0.603
PLDEEYFTLQI [TP53_Y327_G325E]	4.65

test system: AncSZ; assay: as above

Sequence	phosphorylation enrichment
DGMADCSDPSY [CDC5L_Y459_Y459C]	1.12
AKLDEYIAIAK [RCOR3_Y46]	0.92
YAADYYKLLGN [ROR2_Y646]	1.1
PRDGEYFTLQI [TP53_Y327_L323R]	2.81
IGERTYGQVFK [CDK13_Y716_G714R_YF]	0.62
RGYRQYAYDGK [HLA-A_Y140_D140Y]	0.478
IIAVHYVLEES [RYR2_Y4559]	1
KDYETYQPFQN [CTNND2_Y1157]	1.72
SLHPGYNFRFA [P2RX7_Y291_Y288H_YF]	0.852
SARVRYLMAEK [LDHB_Y173_F171V]	0.579
KLIETYFSKNF [PLP1_Y50_YF]	0.942
TQFWRYFAGNL [SLC25A5_Y112_L111R]	0.918
QNTVDYFDLFG [PTPN11_Y62_G60V_YF]	2.35
ALDRPYTSKHS [NANS_Y71_E68D]	0.612
PRPACYPSTVS [CACNA1C_Y1832_G1831C]	0.554
NIQKKYFRAIL [CHD7_Y1217_YF]	0.625
YGEYRYRSVIK [CFTR_Y517_D513G]	0.714
KGFCGYSFDDI [TMEM230_Y110_R108C_YF]	1.18
ATKNDYWAMLA [WWOX_Y287_P282A]	1.17
HEDPMYDIIRD [RP9_Y142]	1.94
MHFSNYVSKGS [PDGFRA_Y849_D846Y_YF]	0.522
QRASDYYSQQM [GBP6_Y333_A331S]	0.825
DWRQEYVLNEP [TGM1_Y267_S272P]	1.24
ADFFDYGHGLS [KHDRBS3_Y304_YF]	0.709
LADKPYTFEFF [FXN_Y118_D122Y_YF]	1.78
VIESSYTSADG [DHCR7_Y382_C380S]	0.892
TFGVVYKARNK [CDK2_Y19_YF]	0.928
CRVEPYGENFN [APOA4_Y310_R305C]	1.28
PLDEEYFTLQI [TP53_Y327_G325E]	2.96

test system: Fer (mouse); assay: as above

Sequence	phosphorylation enrichment
DGMADCSDPSY [CDC5L_Y459_Y459C]	0.52
AKLDEYIAIAK [RCOR3_Y46]	0.452
YAADYYKLLGN [ROR2_Y646]	0.634
PRDGEYFTLQI [TP53_Y327_L323R]	0.775
IGERTYGQVFK [CDK13_Y716_G714R_YF]	0.456
RGYRQYAYDGK [HLA-A_Y140_D140Y]	0.317
IIAVHYVLEES [RYR2_Y4559]	0.501
KDYETYQPFQN [CTNND2_Y1157]	1.47
SLHPGYNFRFA [P2RX7_Y291_Y288H_YF]	0.434
SARVRYLMAEK [LDHB_Y173_F171V]	0.439
KLIETYFSKNF [PLP1_Y50_YF]	0.4
TQFWRYFAGNL [SLC25A5_Y112_L111R]	0.351
QNTVDYFDLFG [PTPN11_Y62_G60V_YF]	0.609
ALDRPYTSKHS [NANS_Y71_E68D]	0.474
PRPACYPSTVS [CACNA1C_Y1832_G1831C]	0.381
NIQKKYFRAIL [CHD7_Y1217_YF]	0.399
YGEYRYRSVIK [CFTR_Y517_D513G]	0.49
KGFCGYSFDDI [TMEM230_Y110_R108C_YF]	0.504
ATKNDYWAMLA [WWOX_Y287_P282A]	0.452
HEDPMYDIIRD [RP9_Y142]	4.2
MHFSNYVSKGS [PDGFRA_Y849_D846Y_YF]	0.367
QRASDYYSQQM [GBP6_Y333_A331S]	0.453
DWRQEYVLNEP [TGM1_Y267_S272P]	0.55
ADFFDYGHGLS [KHDRBS3_Y304_YF]	0.433
LADKPYTFEFF [FXN_Y118_D122Y_YF]	1.25
VIESSYTSADG [DHCR7_Y382_C380S]	0.519
TFGVVYKARNK [CDK2_Y19_YF]	0.481
CRVEPYGENFN [APOA4_Y310_R305C]	0.649
PLDEEYFTLQI [TP53_Y327_G325E]	0.691
